Among the data in publication PMC7805551 are percent of MHF without FANCM values, retold here.

For this experiment, the target named is chicken MHF complex (MHF1/MHF2 heterotetramer) (chicken) (UniProt E1BSW7). Description: native gel or EMSA; 2 mg/ml FANCM–MHF or MHF mixed 1:1 with 10 mM Tris–HCl pH 8 or 10–60% MPD, 20°C for 60 min; 6% polyacrylamide TBE gel, 0.5x TBE, 4°C; bands cut out and analysed by SDS–PAGE; at 30% MPD a smeared band at the position of MHF.

Substance “chicken FANCM (MHF interaction region, amino acids 660–804) (from UniProt A0A1D5PRR9 660-804) (domain or fragment)” yielded a percent of MHF without FANCM of 3%.
